Data set [1] deals with GST-MBNL1-His6 (truncated 41-kDa isoform). As to the kind of experiment: filter binding. As to conditions: MBNL1 filter binding: 250 mM NaCl, 15 mM KCl, 50 mM Tris-HCl pH 8.0, 0.05% Tween-20, 1 mM MgCl2, 37 C, 15 min, SRSF1 EMSA: 100 mM NaCl, 20 mM HEPES-Na pH 8.0 ….
Data set [2] addresses SRSF1-His6 (23 kDa) (UniProt Q07955). Nature of the data set: EMSA. As to conditions: MBNL1 filter binding: 250 mM NaCl, 15 mM KCl, 50 mM Tris-HCl pH 8.0, 0.05% Tween-20, 1 mM MgCl2, 37 C, 15 min, SRSF1 EMSA: 100 mM NaCl, 20 mM HEPES-Na pH 8.0 ….
Sequence of UniProt Q07955 (Q07955 1-186): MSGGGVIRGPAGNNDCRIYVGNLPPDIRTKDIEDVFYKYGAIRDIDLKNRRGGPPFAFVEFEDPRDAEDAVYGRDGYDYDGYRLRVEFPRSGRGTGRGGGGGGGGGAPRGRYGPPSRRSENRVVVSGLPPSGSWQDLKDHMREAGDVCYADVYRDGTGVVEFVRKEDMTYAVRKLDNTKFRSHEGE

Results on 4 substances are retold here after publication PMC5730568.

Regarding Atp2a1-RNA, the binding signal (fold suppression) in data set [1] (0.5 uM 2'OMe AON (S4)), in data set [1] (0.5 uM 2'OMe-PS AON (S5)) and in data set [1] (20 uM DNA AON (S120)) was 8 in each case.
In turn, “GGGUUGGUACUAAGAAGUGCCUUUCCUGACGUCUCUGCUGCUUGGAACCGCUUCUAGAGCAGCCUCUGCUUUUGCCUUGCUUGCUGCCAGCUAGACUGACGACAGCACAUCCGCCCUCCACCUCUAGCCCAGACACCCCAUUUCUACUUCUAAUCAGGAGAAAAGCUCUGAGUAUCUGCCAUUGCCCUAGG [Mbnl1-RNA]” yielded a Kd in data set [2] of 13 nM.
For the substance Mbnl1-RNA, the Kd in data set [2] (no AON) came out at 13 nM.
The same measure, in the same setting: the figure for Nfix-RNA is 60 nM.
